Experimental data from patent US20210395716.

Target: β-amyloid peptide (1-42) (UniProt P05067)
Sequence (P05067 whole entry, looked up, tested part not stated): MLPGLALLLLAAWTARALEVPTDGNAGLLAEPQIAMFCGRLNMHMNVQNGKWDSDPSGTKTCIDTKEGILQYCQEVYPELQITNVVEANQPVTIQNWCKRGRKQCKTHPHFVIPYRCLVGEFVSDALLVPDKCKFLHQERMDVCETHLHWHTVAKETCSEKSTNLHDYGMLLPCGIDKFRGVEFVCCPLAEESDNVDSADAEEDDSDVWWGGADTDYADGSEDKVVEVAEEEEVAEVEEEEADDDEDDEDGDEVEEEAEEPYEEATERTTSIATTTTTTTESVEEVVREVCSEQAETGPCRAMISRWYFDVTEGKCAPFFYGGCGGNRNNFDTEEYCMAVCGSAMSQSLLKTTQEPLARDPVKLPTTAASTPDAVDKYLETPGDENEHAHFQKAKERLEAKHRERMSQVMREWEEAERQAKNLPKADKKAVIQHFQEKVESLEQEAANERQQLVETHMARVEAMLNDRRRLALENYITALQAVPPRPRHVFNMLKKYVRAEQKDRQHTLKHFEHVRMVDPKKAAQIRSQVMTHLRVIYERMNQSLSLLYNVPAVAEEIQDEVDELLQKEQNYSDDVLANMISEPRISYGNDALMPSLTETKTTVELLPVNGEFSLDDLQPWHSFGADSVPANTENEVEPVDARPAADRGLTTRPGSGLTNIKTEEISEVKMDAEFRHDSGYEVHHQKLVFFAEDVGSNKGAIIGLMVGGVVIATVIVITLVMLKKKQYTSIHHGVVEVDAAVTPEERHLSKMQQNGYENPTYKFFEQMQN

Substance: yeast NEP (yNEP)
- Abeta HPLC, per hr. (sample yNEP): 0.46 per hr.
- Abeta HPLC, rate (sample yNEP) (million sq unt/min): 0.0137
- Abeta HPLC, units/µL (sample yNEP): 0.0274 units/µL
- Abeta HPLC, units/µg (sample yNEP): 0.008 units/µg
